The target in experiment [1] is T1, human Claudin 18.2 (CLDN 18.2) expressed on HEK293 / HEK293T cells (human).
T1 construct: Full-length CLDN18.2 on transiently or stably transfected HEK293/HEK293T cells; also called CLD18.2
Nature of the experiment: flow cytometry on HEK293 cells transiently transfected with GFP and human CLDN 18.2. The method, then:
After cell detachment using 2 mM EDTA/PBS cells were washed with complete growth medium and plated at approximately 1-5×10⁵ cells/well in U-bottom microtiter plates. Cells were incubated for […]. at 4° C. with monoclonal antibody 3B8 followed by three washing steps with ice cold PBS and finally incubation with Dylight 650-conjugated secondary anti-IgG antibody. Binding was assessed by flow cytometry using a BD, Accuri™ C6 Plus. Fluorescence marker expression was plotted on the horizontal axis against antibody binding on the vertical axis. Mouse antibodies 3B8 were detected to bind specifically to the surface of fluorescence marker expressing HEK293 cells (FIG. 3, cells in Q5-UR).
Background: A flow cytometer gives signals particle by particle.

Experiment [2] addresses T1, human Claudin 18.2 (CLDN 18.2) …. Nature of the experiment: cell-based ELISA (InCell Elisa) on fixed HEK293_CLDN18.2 cells, OD450; Kd table under the graph, no unit in the table, unit from the x axis log[antibody] ug/ml.
For experiment [3] the target is unchanged. Nature of the experiment: cell-based ELISA (InCell Elisa) on formalin-fixed HEK293_CLDN18.2 cells, OD450; Kd box under the graph, no unit in the box, unit from the x axis log[antibody] nM; the curve on HEK293T cells stays flat at about 0.1.
For experiment [4] the target is unchanged. Nature of the experiment: cell-based ELISA (InCell Elisa) on fixed HEK293_CLDN18.2 cells, y axis RLU; Kd table under the graph, no unit in the table, unit from the x axis log[antibody] ug/ml. (An ELISA detects its analyte on a solid surface through an enzyme-linked reagent.)

Broadly, the EC50 is the concentration giving half of the maximal effect. The Kd is the free concentration of one partner at which half of the binding sites on the other are occupied at equilibrium, for simple one-to-one binding.

T1 sequence (chain, as listed by the source limits assumed): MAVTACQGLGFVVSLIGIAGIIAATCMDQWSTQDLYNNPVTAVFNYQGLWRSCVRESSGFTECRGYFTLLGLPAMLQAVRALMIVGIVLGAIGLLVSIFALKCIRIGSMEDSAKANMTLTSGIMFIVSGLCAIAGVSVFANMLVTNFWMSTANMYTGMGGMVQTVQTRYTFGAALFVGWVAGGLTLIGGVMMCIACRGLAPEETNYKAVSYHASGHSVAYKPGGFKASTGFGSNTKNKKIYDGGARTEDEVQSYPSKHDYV

B1: Anti-CLDN 18.2-3B8 (antibody, V domains shown)
VH: EVKLVESGGGLVKPGGSLKLSCAASGFTFSSYAMSWVRQTPEKRLEWVASISSGGSTYYPDSVKGRFTISRDNARNILYLQMSSLRSEDTAMYYCASFGYDVAMDYWGQGTSVTVSS
VL: DVLMTQTPLSLPVSLGDQASISCRSSQSIVHSNGNTYLQWYLQKPGQSPKLLIYKVSNRFSGVPDRFSGSGSGTDFTLKISRVEAEDLGVYYCFQGSHVPFTFGSGTKLEIK
notes: Mouse monoclonal antibody; also called monoclonal antibody 3B8
Turning to B1, the 50% effective concentration (EC50) in experiment [1] lay within 1 to 2 µg/mL.

B2: Anti-CLDN 18.2-5C9o (humanized antibody h5C9o) (antibody, V domains shown)
VH: EVQLVESGGGLVQPGGSLRLSCAVSGYTFSMNWVRQAPGKGLEWVAWINMYTGEPTYADDFKGRFTISRDDSKNTLYLQMNSLRAEDTAVYYCARLYNGNSLDYWGQGTLVTVSS
VL: DIQMTQSPSSLSASVGDRVTITCKSSQSLLNSGNQKSYLTWYQQKPGKAPKLLIYWASTLESGVPSRFSGSGSGTDYTLTISSLQPEDFATYYCQNAYSFPFTFGQGTKVEIK
notes: Humanized IgG; The general method joins the variable domains to human IgG1 constant domains; Full chains are not mapped to the name; also called CLDN18.2-h5C9o
Consider B2, for which the dissociation constant Kd in experiment [2] is 0.126 µg/mL; in experiment [3] it was 0.169 nM.

B3: humanized anti-Claudin 18.2 antibody h5C9oao (antibody, human IgG1, kappa, V domains shown)
VH: EVQLVESGGGLVQPGGSLRLSCAVSGYTFSMNWVRQAPGKGLEWVAWINMYTGEPTYADDFKGRFTISRDDSKNTLYLQMNSLRAEDTAVYYCARLARGNSMDYWGQGTLVTVSS
VL: DIQMTQSPSSLSASVGDRVTITCKSSQSLLNSGNQKSYLTWYQQKPGKAPKLLIYWASTLESGVPSRFSGSGSGTDYTLTISSLQPEDFATYYCQNAYFFPFTFGQGTKVEIKR
Turning to B3, the Kd in experiment [2] worked out at 0.149 µg/mL; in experiment [4], 0.154 µg/mL.

B4: Anti-CLDN 18.2-5C9oag (humanized antibody h5C9oag) (antibody, human IgG1, V domains shown)
VH: EVQLVESGGGLVQPGGSLRLSCAVSGYTFSMNWVRQAPGKGLEWVAWINMYTGEPTYADDFKGRFTISRDDSKNTLYLQMNSLRAEDTAVYYCARLARGNSIDYWGQGTLVTVSS
VL: DIQMTQSPSSLSASVGDRVTITCKSSQSLLNSGNQKSYLTWYQQKPGKAPKLLIYWASTLESGVPSRFSGSGSGTDYTLTISSLQPEDFATYYCQNAYSFPFTFGQGTKVEIK
notes: the general method uses human IgG1 constant domains
B4 had a dissociation constant Kd in experiment [4] of 0.191 µg/mL.

B5: Anti-CLDN 18.2-5C9oai (humanized antibody h5C9oai) (antibody, human IgG1, V domains shown)
VH: EVQLVESGGGLVQPGGSLRLSCAVSGYTFSMNWVRQAPGKGLEWVAWINMYTGEPTYADDFKGRFTISRDDSKNTLYLQMNSLRAEDTAVYYCARLARGNSMDYWGQGTLVTVSS
VL: DIQMTQSPSSLSASVGDRVTITCKSSQSLLNSGNQKSYLTWYQQKPGKAPKLLIYWASTLESGVPSRFSGSGSGTDYTLTISSLQPEDFATYYCQNAYSFPFTFGQGTKVEIK
notes: as for B4
B5 displayed a Kd in experiment [4] of 0.18 µg/mL.

B6: h5C9o Fc mutation (antibody, V domains shown)
VH: EVQLVESGGGLVQPGGSLRLSCAVSGYTFSMNWVRQAPGKGLEWVAWINMYTGEPTYADDFKGRFTISRDDSKNTLYLQMNSLRAEDTAVYYCARLYNGNSLDYWGQGTLVTVSS
VL: DIQMTQSPSSLSASVGDRVTITCKSSQSLLNSGNQKSYLTWYQQKPGKAPKLLIYWASTLESGVPSRFSGSGSGTDYTLTISSLQPEDFATYYCQNAYSFPFTFGQGTKVEIKR
For B6, the values for the equilibrium dissociation constant (Kd) in experiment [2] and in experiment [4] were 0.213 µg/mL and 0.225 µg/mL, respectively.

B7: humanized anti-Claudin 18.2 antibody h5C9oan (antibody, human IgG1, kappa, V domains shown)
VH: EVQLVESGGGLVQPGGSLRLSCAVSGYTFSMNWVRQAPGKGLEWVAWINMYTGEPTYADDFKGRFTISRDDSKNTLYLQMNSLRAEDTAVYYCARSSRGNGFDYWGQGTLVTVSS
VL: DIQMTQSPSSLSASVGDRVTITCKSSQSLLNSGNQKSYLTWYQQKPGKAPKLLIYWASTLESGVPSRFSGSGSGTDYTLTISSLQPEDFATYYCQNAYFFPFTFGQGTKVEIKR
With B7, the Kd in experiment [2] is 0.168 µg/mL; in experiment [4], 0.194 µg/mL.

B8: Anti-CLDN 18.2-5C9oae (humanized antibody h5C9oae) (antibody, human IgG1, V domains shown)
VH: EVQLVESGGGLVQPGGSLRLSCAVSGYTFSMNWVRQAPGKGLEWVAWINMYTGEPTYADDFKGRFTISRDDSKNTLYLQMNSLRAEDTAVYYCARLYRGNSLDYWGQGTLVTVSS
VL: DIQMTQSPSSLSASVGDRVTITCKSSQSLLNSGNQKSYLTWYQQKPGKAPKLLIYWASTLESGVPSRFSGSGSGTDYTLTISSLQPEDFATYYCQNAYFFPFTFGQGTKVEIK
notes: as for B4
For the molecule B8, the Kd was determined as 0.123 µg/mL in experiment [2] and 0.184 µg/mL in experiment [4].

B9: Anti-CLDN 18.2-5C9ob (humanized antibody h5C9ob) (antibody, human IgG1, V domains shown)
VH: EVQLVESGGGLVQPGGSLRLSCAVSGYTFSMNWVRQAPGKGLEWVAWINMYTGEPTYADDFKGRFTISRDDSKNTLYLQMNSLRAEDTAVYYCARLYNGNSLDYWGQGTLVTVSS
VL: DIQMTQSPSSLSASVGDRVTITCKSSQSLLNSGNQKSYLTWYQQKPGKAPKLLIYWASTLESGVPSRFSGSGSGTDYTLTISSLQPEDFATYYCQNAYFFPFTFGQGTKVEIK
notes: the general method uses human IgG1 constant domains; also called CLDN18.2-h5C9ob
As for B9, the figures for the Kd in experiment [2] and in experiment [4] were 0.153 µg/mL and 0.206 µg/mL, respectively.

These data come from US20200207857A1 (SPARX BIOSCIENCE, published 2020).
